Reference: patent US20250361322A1 (ICONIC THERAPEUTICS, published 2025)

Key:
human Tissue Factor (TF) = human Tissue Factor (TF) (human, UniProt P13726 33-295); experiment: cell-based or functional assay
Relipidated TF [1] = experiment: cell-based or functional assay
[2] = biological target: human Tissue Factor (hTF) (human, UniProt P13726 33-295); experiment: cell-based or functional assay
Relipidated TF [3] = biological target: Relipidated TF (UniProt P13726 33-295, limits assumed); experiment: cell-based or functional assay
[4] = biological target: T1, pig TF ECD-His (TF-His) protein (pig (Sus scrofa)); experiment: Biacore; antibody captured by anti-human IgG on CM5 chip, titration of pig TF-His, 1:1 model
T1 construct: also called pig TF-His; pTF
T1 chain: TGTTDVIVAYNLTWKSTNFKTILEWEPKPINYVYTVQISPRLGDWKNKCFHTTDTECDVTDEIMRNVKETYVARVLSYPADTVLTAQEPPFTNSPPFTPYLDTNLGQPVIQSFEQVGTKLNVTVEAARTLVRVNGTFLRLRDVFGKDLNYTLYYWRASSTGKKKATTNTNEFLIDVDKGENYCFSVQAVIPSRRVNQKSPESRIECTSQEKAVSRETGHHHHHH
Procedure: The ability of certain antibodies was tested for binding to pig TF. For pig TF Biacore-based measurements, a given anti-TF antibody was captured by an anti-human IgG antibody covalently coupled to a CM5 chip (GE Healthcare Bio-Sciences). Association between the anti-TF antibodies and a five-point three-fold titration of pig TF-His starting at 100 nM was measured for 180 to 240 sec. Subsequently, dissociation between the anti-TF antibody and TF-His was measured for 1800 sec. Kinetic data was analyzed and fitted globally using a 1:1 binding model.

[5] = biological target: T2, rabbit TF ECD-His (TF-His) protein (rabbit (Oryctolagus cuniculus), UniProt P24055 33-250); experiment: Biacore; antibody captured by anti-human IgG on CM5 chip, titration of rabbit TF-His, 1:1 model
T2 construct: also called rabbit TF-His
T2 sequence (P24055 other isoform, or with tags, fused parts or gaps): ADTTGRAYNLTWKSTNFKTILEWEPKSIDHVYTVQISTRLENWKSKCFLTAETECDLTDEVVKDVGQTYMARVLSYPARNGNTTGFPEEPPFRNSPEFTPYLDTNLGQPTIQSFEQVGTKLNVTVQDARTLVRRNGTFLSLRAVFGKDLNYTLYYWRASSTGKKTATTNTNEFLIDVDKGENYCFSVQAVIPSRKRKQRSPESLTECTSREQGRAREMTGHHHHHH
Procedure: The ability of certain antibodies was tested for binding to rabbit TF. For rabbit TF Biacore-based measurements, a given anti-TF antibody was captured by an anti-human IgG antibody covalently coupled to a CM5 chip (GE Healthcare Bio-Sciences). Association between the anti-TF antibodies and a five-point three-fold titration of rabbit TF-His starting at 100 nM was measured for 180 to 240 sec. Subsequently, dissociation between the anti-TF antibody and TF-His was measured for 1800 sec. Kinetic data was analyzed and fitted globally using a 1:1 binding model.

B1: 5G9 (humanized TF8-5G9, CNTO 860) (antibody, V domains shown)
VH: QVQLVESGGGVVQPGRSLRLSCKASGFNIKDYYMHWVRQAPGKGLEWIGLIDPENGNTIYDPKFQGRFTISADNSKNTLFLQMDSLRPEDTAVYYCARDNSYYFDYWGQGTPVTVSS
VL: DIQMTQSPSSLSASVGDRVTITCKASQDIRKYLNWYQQKPGKAPKLLIYYATSLADGVPSRFSGSGSGTDYTFTISSLQPEDIATYYCLQHGESPYTFGQGTKLEIT
% FXa at 12.5 nM antibody (human Tissue Factor (TF)): 37%
% FXa at 25 nM antibody (human Tissue Factor (TF)): 33%
% FXa at 50 nM antibody (human Tissue Factor (TF)): 30%
% FXa at 100 nM antibody (human Tissue Factor (TF)): 30%

B2: anti-TF antibody 54E (antibody, human IgG1, V domains shown)
VH: QVQLVQSGAEVKKPGASVKVSCKASGYTFANYYMHWVRQAPGQGLEWMGIINPSGGITVYAQKFQGRVTMTRDTSTSTVYMELSSLRSEDTAVYYCARGGSKVAALAFDIWGQGTMVTVSS
VL: DIQMTQSPSSLSASVGDRVTITCQASQDISNSLNWYQQKPGKAPKLLIYDASNLETGVPSRFSGSRSGTDFTFTISSLQPEDIATYYCQQYNFHPLTFGGGTKVEIK
% ETP, TGA with 10 min antibody pre-incubation, 10 nM antibody (Relipidated TF [1]): 83%
% Peak IIa, TGA with 10 min antibody pre-incubation, 10 nM antibody (Relipidated TF [1]): 43%
% Peak IIa, TGA with 10 min antibody pre-incubation, 50 nM antibody (Relipidated TF [1]): 16%
% Peak IIa, TGA with 10 min antibody pre-incubation, 100 nM antibody (Relipidated TF [1]): 13%
% ttPeak, TGA with 10 min antibody pre-incubation, 10 nM antibody (Relipidated TF [1]): 96%
% ttPeak, TGA with 10 min antibody pre-incubation, 50 nM antibody (Relipidated TF [1]): 303%
ETP, TGA with 10 min antibody pre-incubation, 10 nM antibody (Relipidated TF [1]): 1520 nM·min
Lag Time, TGA with 10 min antibody pre-incubation, 10 nM antibody (Relipidated TF [1]): 6.5 min
Lag Time, TGA with 10 min antibody pre-incubation, 50 nM antibody (Relipidated TF [1]): 18.3 min
Lag Time, TGA with 10 min antibody pre-incubation, 100 nM antibody (Relipidated TF [1]): 22.3 min
Peak IIa, TGA with 10 min antibody pre-incubation, 10 nM antibody (Relipidated TF [1]): 121 nM
Peak IIa, TGA with 10 min antibody pre-incubation, 50 nM antibody (Relipidated TF [1]): 44 nM
Peak IIa, TGA with 10 min antibody pre-incubation, 100 nM antibody (Relipidated TF [1]): 37 nM
ttPeak, TGA with 10 min antibody pre-incubation, 10 nM antibody (Relipidated TF [1]): 13.7 min
ttPeak, TGA with 10 min antibody pre-incubation, 50 nM antibody (Relipidated TF [1]): 28.2 min
ttPeak, TGA with 10 min antibody pre-incubation, 100 nM antibody (Relipidated TF [1]): 33 min
IC50, cell viability of A431 cells, Secondary ADC (antibody with anti-human Fc Fab:MMAF), Continuous (FIG. 18B) [2]: 0.11 nM

B3: 25A5 (antibody, human IgG1, V domains shown)
VH: QVQLVQSGAEVKKPGASVKVSCKASGYTFDVYGISWVRQAPGQGLEWMGWIAPYSGNTNYAQKLQGRVTMTTDTSTSTAYMELRSLRSDDTAVYYCARDAGTYSPFGYGMDVWGQGTTVTVSS
VL: DIQMTQSPSTLSASVGDRVTITCRASESISNWLAWYQQKPGKAPKLLIYKAYSLEYGVPSRFSGSGSGTEFTLTISSLQPDDFATYYCQQFQKLPPFTFGGGTKVEIK
% ETP at 10 nM Ab (TGA without antibody pre-incubation) (Relipidated TF [3]): 99%
% Peak IIa at 10 nM Ab (TGA without antibody pre-incubation) (Relipidated TF [3]): 98%
% Peak IIa at 50 nM Ab (TGA without antibody pre-incubation) (Relipidated TF [3]): 98%
% Peak IIa at 100 nM Ab (TGA without antibody pre-incubation) (Relipidated TF [3]): 98%
ETP at 10 nM Ab (TGA without antibody pre-incubation) (Relipidated TF [3]): 2270 nM·min
ETP at 50 nM Ab (TGA without antibody pre-incubation) (Relipidated TF [3]): 2320 nM·min
ETP at 100 nM Ab (TGA without antibody pre-incubation) (Relipidated TF [3]): 2390 nM·min
Lag Time at 10 nM Ab (TGA without antibody pre-incubation) (Relipidated TF [3]): 4.7 min
Lag Time at 50 nM Ab (TGA without antibody pre-incubation) (Relipidated TF [3]): 4.8 min
Lag Time at 100 nM Ab (TGA without antibody pre-incubation) (Relipidated TF [3]): 5.1 min
Peak IIa at 10 nM Ab (TGA without antibody pre-incubation) (Relipidated TF [3]): 343 nM
Peak IIa at 50 nM Ab (TGA without antibody pre-incubation) (Relipidated TF [3]): 344 nM
Peak IIa at 100 nM Ab (TGA without antibody pre-incubation) (Relipidated TF [3]): 342 nM
ttPeak at 10 nM Ab (TGA without antibody pre-incubation) (Relipidated TF [3]): 8 min
ttPeak at 50 nM Ab (TGA without antibody pre-incubation) (Relipidated TF [3]): 8.1 min
ttPeak at 100 nM Ab (TGA without antibody pre-incubation) (Relipidated TF [3]): 8.5 min

B4: anti-TF antibody 25A (antibody, human IgG1, V domains shown)
VH: QVQLVQSGAEVKKPGASVKVSCKASGYTFDVYGISWVRQAPGQGLEWMGWIAPYNGNTNYAQKLQGRVTMTTDTSTSTAYMELRSLRSDDTAVYYCARDAGTYSPFGYGMDVWGQGTTVTVSS
VL: DIQMTQSPSTLSASVGDRVTITCRASQSISSWLAWYQQKPGKAPKLLIYKASSLESGVPSRFSGSGSGTEFTLTISSLQPDDFATYYCQQFQSLPPFTFGGGTKVEIK
notes: Human IgG1
IC50, cell viability of A431 cells, Secondary ADC (antibody with anti-human Fc Fab:MMAF), Continuous (FIG. 18B) [2]: 0.11 nM
Kd [4]: 18.7 nM
Kd [5]: 50.5 nM

B5: anti-TF antibody 25A3 (antibody, human IgG1, V domains shown)
VH: QVQLVQSGAEVKKPGASVKVSCKASGYTFDVYGISWVRQAPGQGLEWMGWIAPYSGNTNYAQKLQGRVTMTTDTSTSTAYMELRSLRSDDTAVYYCARDAGTYSPFGYGMDVWGQGTTVTVSS
VL: DIQMTQSPSTLSASVGDRVTITCQASQSINNWLAWYQQKPGKAPKLLIYKAYNLESGVPSRFSGSGSGTEFTLTISSLQPDDFATYYCQLFQSLPPFTFGGGTKVEIK
notes: Human IgG1
IC50, cell viability of A431 cells, Secondary ADC (antibody with anti-human Fc Fab:MMAF), Continuous (FIG. 18B) [2]: 0.09 nM
Kd [4]: 5.5 nM

B6: anti-TF antibody 25A5 (antibody, human IgG1, V domains shown)
VH: QVQLVQSGAEVKKPGASVKVSCKASGYTFDVYGISWVRQAPGQGLEWMGWIAPYSGNTNYAQKLQGRVTMTTDTSTSTAYMELRSLRSDDTAVYYCARDAGTYSPFGYGMDVWGQGTTVTVSS
VL: DIQMTQSPSTLSASVGDRVTITCRASESISNWLAWYQQKPGKAPKLLIYKAYSLEYGVPSRFSGSGSGTEFTLTISSLQPDDFATYYCQQFQKLPPFTFGGGTKVEIK
notes: Human IgG1
Kd [4]: 5.2 nM
Kd [5]: 5.4 nM

B7: anti-TF antibody 25A5-T (antibody, human IgG1, V domains shown)
VH: QVQLVQSGAEVKKPGASVKVSCKASGYTFDAYGISWVRQAPGQGLEWMGWIAPYSGNTNYAQKLQGRVTMTTDTSTSTAYMELRSLRSDDTAVYYCARDAGTYSPFGYGMDVWGQGTTVTVSS
VL: DIQMTQSPSTLSASVGDRVTITCRASESISNWLAWYQQKPGKAPKLLIYKAYSLEYGVPSRFSGSGSGTEFTLTISSLQPDDFATYYCQQFQKLPPFTFGGGTKVEIK
notes: Human IgG1
Kd [4]: 4.5 nM
Kd [5]: 5.4 nM
